Data reported in publication PMC9167512, “Intradiol ring cleavage dioxygenases from herbivorous spider mites as a new detoxification enzyme family in animals” (BMC Biology, 2022).

What was measured:
Assay in all cases: purified protein
Details in all cases: 0.1 M PBS pH 7.5, 25 °C, O2 co-substrate (air), Fe enzyme, kcat corrected for iron content
[1] = tested on: Oc1ccc(Cl)cc1O
[2] = substrate: Oc1ccccc1O
[3] = substrate: Cc1ccc(O)c(O)c1; type: biochemical, Tetranychus urticae

| Molecule | Km [1] | Vmax [1] | kcat [1] | kcat/Km [1] | Km [2] | Vmax [2] | kcat [2] | kcat/Km [2] | Km [3] | Vmax [3] | kcat [3] | kcat/Km [3] |
| --- | --- | --- | --- | --- | --- | --- | --- | --- | --- | --- | --- | --- |
| TuDOG15 (Tetranychus urticae) | 72.0 ± 21.3 µM | 0.62 µM/min | 0.0915 ± 0.0133 s⁻¹ | 1270 ± 617 M⁻¹ s⁻¹ |  |  |  |  |  |  |  |  |
| TuDOG11 (Tetranychus urticae) | 25.2 ± 4.6 µM | 0.09 µM/min | 0.00858 ± 0.00095 s⁻¹ | 333 ± 200 M⁻¹ s⁻¹ |  |  |  |  |  |  |  |  |
| TuDOG7 (Tetranychus urticae) | 115.2 ± 35.7 µM | 0.96 µM/min | 0.051 ± 0.0122 s⁻¹ | 450 ± 350 M⁻¹ s⁻¹ |  |  |  |  |  |  |  |  |
| TuDOG16 (Tetranychus urticae) | 154.3 ± 20.9 µM | 0.31 µM/min | 0.0416 ± 0.00135 s⁻¹ | 267 ± 66.7 M⁻¹ s⁻¹ |  |  |  |  |  |  |  |  |
| TuDOG1 (Tetranychus urticae) | 21.2 ± 7.4 µM | 0.08 µM/min | 0.0216 ± 0.0027 s⁻¹ | 1020 ± 367 M⁻¹ s⁻¹ |  |  |  |  |  |  |  |  |
| TuDOG11 (Tetranychus urticae) (protein, signal peptide removed, N-terminal 6xHis kept, pJExpress 411, E. coli BL21(DE3), codon optimized (ATUM), 25-37 kDa) HLQRPGKFLPHDRSIVDCARYKREANQHTCVLAPFTTEGPYFLPDDLERSDITDGQTGVNLDLNLKLTNAKDCSPLSNYFVHVWQANALGHYSGVNELFPVGFRPKPISGERFLRGYQKTNEDGEVNFKTIIPGWYVGRCIHIHVEVYAKNNTDGNAVNYIGQLYFERDIPSSLRLVEPYSTNVNEITLNDSDGVYLLTHGNDTLIDLVPQESGFRTDYIVAIDPDVSIKYDWLDI |  |  |  |  | 64.9 ± 24.3 µM | 0.56 µM/min | 0.0534 ± 0.00382 s⁻¹ | 817 ± 150 M⁻¹ s⁻¹ | 153.9 ± 24.6 µM | 0.58 µM/min | 0.0553 ± 0.00382 s⁻¹ | 367 ± 150 M⁻¹ s⁻¹ |
| TuDOG15 (Tetranychus urticae) (protein) DHERPGKYLEHDSTVINCARYKREANQHSCVLAPYAVEGPYFLPDDLERSNLAEDKVGVSLDLAIRLVNSNDCTPLTNMFVHVWHADALGVYSGVPDLAELFVERMRQENKTLPPFWGPEGAYEGRRPGGPGGPGGPGGPGGPGDMEMPGRPTPVNNERFLRGYQVTNEAGEVNFKTIIPGWYTGRSLHIHVEVYSKNTTEPGEVNYIGQIFFKDDLPAELKLIEPYSLNQNILVLNPQDGIYNFAHGEQTKIQLENRETGYFGSMTFGINPNAH |  |  |  |  | 91.0 ± 21.2 µM | 0.09 µM/min | 0.0133 ± 0.00148 s⁻¹ | 150 ± 66.7 M⁻¹ s⁻¹ | 117.4 ± 46.5 µM | 1.77 µM/min | 0.261 ± 0.0546 s⁻¹ | 2230 ± 1170 M⁻¹ s⁻¹ |
| TuDOG16 (Tetranychus urticae) (protein, signal peptide removed, N-terminal 6xHis kept, pJExpress 411, E. coli BL21(DE3), codon optimized (ATUM), 25-37 kDa) HSERPGKFLEHDRSIVNCARYKREANQHTCVLAPFATEGPYFLADDLERSDITDGQTGVNLDLNLKLTNAKDCSPLSGYFVHIWNANALGHYSGVQEFNKFPKQTFRPKPIYDTRWLRGYQVTNEDGEVNFKTIVPGWYYGRCLHIHVEVYSKNTTDTNAITYIGQLYFKRELPVQLKLVEPYSSNQNELKFNEQDKVFNGMHGNDTITELVFEENNAKTSFILALDPTVTTLTNGTVVN |  |  |  |  | 51.0 ± 23.4 µM | 0.06 µM/min | 0.00805 ± 0.00135 s⁻¹ | 150 ± 50 M⁻¹ s⁻¹ | 52.4 ± 19.6 µM | 0.14 µM/min | 0.0188 ± 0.00268 s⁻¹ | 367 ± 133 M⁻¹ s⁻¹ |
| TuDOG7 (Tetranychus urticae) (protein) ERSIEILNHDATVIDCARYKREANQHKCVITPFTTEGPYFLPDDYERSDITDGYTGVNLNLTLLLTNAKDCSPLSNYYVHIWNANAMGHYSGVKEFNFFDHPTFRPKPINNLRFLRGYQITNEDGLVNFNTIIPGWYFGRCIHIHVEIYDKNTTDGHAVSYIGQLYFNREMPAALKLIDPYSQNNNELTLNDQDIVFALSRGSDTILELIPEGNGYSASYVLSIDPTVKVENSVLPFEDPRNVSFIEH |  |  |  |  | 74.9 ± 30.9 µM | 0.42 µM/min | 0.0223 ± 0.00318 s⁻¹ | 300 ± 100 M⁻¹ s⁻¹ | 62.2 ± 42.3 µM | 0.53 µM/min | 0.0282 ± 0.0122 s⁻¹ | 450 ± 283 M⁻¹ s⁻¹ |
| TuDOG1 (Tetranychus urticae) (protein, signal peptide removed, N-terminal 6xHis kept, pJExpress 411, E. coli BL21(DE3), codon optimized (ATUM), 25-37 kDa) DVHRRGKFLPHDRTVINCASLNRKAHQHSSVLAPFTTEGPFFLPDDLKRSDITDGQKGIPLELTIKLTNAKDCTPISNFFIHAWQTNATGVYSGIDEDTAPLSGFRPTPVNRDRSLRGYQETDANGEVKFLTILPGWYSGRAIHIHIEVYAKDITDENKITYIGQFYFEHDFPLKLRKIYPYSTNTQRIIFNEQDYYYVHDHGDETTLDLKHNGAKFSSYATVAIDPTVTVHVQ |  |  |  |  | 15.2 ± 4.5 µM | 0.14 µM/min | 0.0378 ± 0.0027 s⁻¹ | 2480 ± 600 M⁻¹ s⁻¹ | 15.1 ± 2.7 µM | 0.12 µM/min | 0.0324 ± 0.0027 s⁻¹ | 2150 ± 1000 M⁻¹ s⁻¹ |
